Laboratory results published in the DeepSol protein solubility set.

test: soluble on expression in E. coli; label from the status in PepcDB or PDB records

Sequence	soluble on expression in E. coli
MAHHHHHHMDYAAAIKQQAEDLQDELKDLALWQEEVARQHEVNKMKKSATFVTNSVPPIRGTVPSLKEAVLKSAGVVEKEDPVKKQKDKGNELFQSGKLQEAVEAYAVGIDLDPEGPMAHVLYGNRALCYLKLERWSDAERDASSCVRLNRTYAKGYFRRATARKQLGNLKGARTDLEAVLALSPNDVSATNEMSLVTKMIRADRDGAEPVTRKKIVITEVDDDDDEQCVGEGAQDKTASPSVIESNTGRHPNTVGDQVVKNEIAELERFRAAQRDAQEARSRERETKLQYKGRTSSRVEIVEEINNESKEGVVVSSSPLSLNNGVTSASAQECPSRELAAVSTSGAAQRPATFKDKKMNEPVVPRMLKPTVKWTKDTLKAPKSFTEFERVFLDLKDDEELLCFYVSVIPPGSMQVLFGSNMTPDILLGMLKAAGRLSGTSTVSFLKGLCTVKRVRDISLFFDDCEKKVVEEVMDVVVSCGASDEDVSLFRRQLGVI	soluble
LARSMACNSETLSELSFALTVGQKANDCDWFVGNSLIVRLLDMTGELNQKNVYTNRGASGIDGLVATAVGVQLANDKPLLALVGDTSLLYDLNSLALLKQATQPMVVVVMNNDGGGIFDLLPVNEKKKDDFYRMPHQLEFSHAAAMFGLSYHRPETLSCAMSMINDGLEKGIHLIEINTPAGQSGEELTRLFQTIQHAALF	not soluble
MLVNGALSTTGSFGQTVKYLQPHYNLVLFDLPFSGQSRAHNPDEMIVSKEDEVQILLQLIDLYQVNYLLSVSWGGVSALLALAQCPASVEKAIISSFSPVLNEPMLDYIDKAQVYLAAREKRKIGSLLNDTVGKHLPRLFKLYNYKHLIGLAEHEYGQIDFHISQIRTLSASNYVERFSSIKIPVLFINGEKDEYTTVEDARMFSNYIAKSSFNVVPDTGHFLDLESKAAWHHSQKTALSFLGT	not soluble
MLSHMVLTRQDIGRAASYYEDGADDYYAKDGDASEWQGKGAEELGLSGEVDSKRFRELLAGNIGEGHRIMRSATRQDSKERIGLDLTFSAPKSVSLQALVAGDAEIIKAHDRAVARTLEQAEARAQARQKIQGKTRIETTGNLVIGKFRHETSRERDPQLHTHAVILNMTKRSDGQWRALKNDEIVKATRYLGAVYNAELAHELQKLGYQLRYGKDGNFDLAHIDRQQIEGFSKRTEQIAEWYAARGLDPNSVSLEQKQAAKVLSRAKKTSVDREALRAEWQATAKELGIDFS	soluble
GPLGSKELKVTQPEKSVSVAAGDSTVLNCTLTSLLPVGPIKWYRGVGQSRLLIYSFTGEHFPRVTNVSDATKRNNMDFSIRISNVTPEDAGTYYCVKFQKGPSEPDTEIQSGGGTEVYVL	soluble
MVINCAFIGFGKSTTRYHLPYVLNRKDSWHVAHIFRRHAKPEEQAPIYSHIHFTSDLDEVLNDPDVKLVVVCTHADSHFEYAKRALEAGKNVLVEKPFTPTLAQAKELFALAKSKGLTVTPYQNRRFDSCFLTAKKAIESGKLGEIVEVESHFDYYRPVAETKPGLPQDGAFYGLGVHTMDQIISLFGRPDHVAYDIRSLRNKANPDDTFEAQLFYGDLKAIVKTSHLVKIDYPKFIVHGKKGSFIKYGIDQQETSLKANIMPGEPGFAADDSVGVLEYVNDEGVTVREEMKPEMGDYGRVYDALYQTITHGAPNYVKESEVLTNLEILERGFEQASPSTVTLAKLEHHHHHH	soluble
FHQISSRIQKSIDVDEVLRLCAEGLHDVLGYERVNILMADTARTSLSFVAAVGTADFNPAGVVLPLDQRGGVITKCFTDRQVYMIDDVSAYPTDFRLQSPYDAIRALRSKSFVICPIVVKGEAIGVFAVDNRSSRRSLNDTDVDTIKLFADQASSAIVRINLLKAI	soluble
FQIGDMVARKSYQMDVLFRIIGIEQTSKGNSIAILHGDEVRLIADSDFSDLVAVKKDEQMMRKKKDESRMNESLELLRQDYKLLREKQEYYATSQYQHQEHYFHMPGKVLHLDGDEAYLKKCLNVYKKIGVPVYGIHCHEKKMSASIEVLLDKYRPDILVITGHDAYSKQKGGIDDLNAYRHSKHFVETVQTARKKIPHLDQLVIFAGACQSHFESLIRAGANFASSPSRVNIHALDPVYIVAKISFTPFMERINVWEVLRNTLTREKGLGGIETRGVLRIGMPYKSN	not soluble
MERDGYKCRICDHSYLDIHYKDGNVENKNLENLIVLCKQCHYRLHQKERMESIKQAFEDFLDELSKNPIEVVIDFSFKKIVESNEEKIRREIIQGFTRPFGVISRIQEKVRDAIMKEIEEEIEKEQASTPEHLRKVVLERNNYRCSVCGYGYLEVHHVDGNILNNTLDNLVTLCRRCHRKVHYHPSFHTTPEDMDKCIRSFHHEFYSTIYEIMKNKKGNIRISIKFDQLGVKGVKISRAQFKRINGLFNHEVINDGIFKQWEREIKNYLSRLEWEQQKEIYRNVYFLLECILPKDSFEAFVNLARKGKFDRRTLREAKKVLKNSIKLEHHHHHH	soluble
MQSQRAYELIKAEIFKRLGVNRTDAYKDSYLQRRIRARMRKLGISDYMEYYKILKSNKEEFEELLLTIAINVTEFFRDPIVWKTFQNKILPELVQFKKSKGFRSIKIWSAACSTGQEPYSIAMTLYEVLGENLGGFRVSILATDIDKEALQIAMRGEYPVDAVEKQVPRHMIYKYFDRISEERYRIKPHVKRLVTFRWFNLLSSIYPKGFDVIFIRNVLIYMSKEAQEDIFRKLYDSLEDHGYLILGKTETILGRSANLFKLYDLVAKVYKKNLGVKGNG	soluble
MAHHHHHHMEDNDWTGHHSGDGDQNEGMMLNRMEAVMDEVEKLRNLNGALTLELQLAEKKLVIRHERIETLKHGLRQECAAKQELQRTLEAERVCHQAQLQDARNDALHWRQLYDDLLNNSHTRSRKHNGRHRNEHRSSTPTLEAALTSREPSSLADSPVAMGHGIIVKPIRGGGQKELN	soluble
MRPNLRFYVQTINDIVKTTEDIGEVMNPYYEEVRQAIDKNKVNDLTAERIAEIQAKFKEGTEKYELMLKKVGTLKPTPQVLGIHKKFQHAYTEYVAGCNEMILATDPETGIDADLFNASEEKQDQATDELTFAITRMSNILLKK	not soluble
MQKLTVGLIGNPNSGKTTLFNQLTGARQRVGNWAGVTVERKEGIFATTDHQVTLVDLPGTYSLTTISSQTSLDEQIACHYILSGDADMLINVVDASNLERNLYLTLQLLELGIPCVVALNMLDIAEKQQVRIDIDALAARLGCPVIPLVSTRGRGIEALKIALDRHQANSDLELVHYPQPLLREADLLAQQMSAQIPPRQRRWLGLQMLEGDIYSRAYAGDAADKLDIALANLSDEIDDPALHIADARYQTIAAICDAVSNTLTAEP	soluble
MNVEKLKKMKGKEKIVMVTAYDAPSARIARDAGIDVILVGDSLGNNVLGYENTIPVTMEEMLIHVAAVKRGAPDAFIVADMPFLSYQTSVEKAVENAGKFLKVGANAVKIEGGEEFGELVQKLVESGIPVMGHIGLTPQFVNRFGGYRVQGKTEKNREYLLRSARELEKRGAFAIVLELVVEEVAKEITESVSIPTIGIGSGRFCDGQVLVWHDLLGLNPDFAPRFSKKYANLYEVILKALQEFRREVKKGLFPTEEHSFTDKSKGGVSS	soluble
SLEGGDTLEGSMAQLKKGLESGTVLIQFEQLYRKKPGLAITFAKLPQNLDKNRYKDVLPYDTTRVLLQGNEDYINASYVNMEIPAANLVNKYIATQGPLPHTCAQFWQVVWDQKLSLIVMLTTLTERGRTKCHQYWPDPPDVMNHGGFHIQCQSEDCTIAYVSREMLVTNTQTGEEHTVTHLQYVAWPDHGVPDDSSDFLEFVNYVRSLRVDSEPLLVHCSAGIGRTGVLVTMETAMCLTERNLPIYPLDIVRKMRDQRAMMVQTSSQYKFVCEAILRVYEEGLVQMLDPS	soluble
MKVPHVIAELVSEFSGFQHTPDFKASRSTGNFEEGSEEGTSGSHKPEEHHHKEHHGHSLYFGKHSGKKHLPPVVENDGDTHSNHSDVSGSGSSLKEKKHHGLTAHFKDLFHIGHHHHHHGEHPHSKQNSGASTPARKNSTGSECPCSKQEQCHKHSINITVGADEVPTVLATPPNEQNILHAHFIKNQSPCISRVVSSSSLKEKLHKIKRTTSSDSDTDFPEKKCSVASYRVVTH	not soluble
